In US20160199440A1 (UNIVERSITY OF ROCHESTER, published 2016):

T1: Claudin 1 (endogenous, in 16HBE human bronchial epithelial cells) (human, UniProt O95832 1-211)
T1 sequence (looked up): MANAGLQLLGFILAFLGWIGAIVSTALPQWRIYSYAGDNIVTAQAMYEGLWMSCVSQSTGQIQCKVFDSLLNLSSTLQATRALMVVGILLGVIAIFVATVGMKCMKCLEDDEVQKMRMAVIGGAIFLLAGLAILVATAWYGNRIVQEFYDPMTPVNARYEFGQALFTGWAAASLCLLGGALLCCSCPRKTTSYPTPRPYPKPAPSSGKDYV

B1: Peptide 2a, scrambled peptide (peptide)
peptide: H-SILTGVSTLDQSLKQLSNFSQAVSTQSSR-NH2
B2: Peptide 1a, hCldn1 (53-81, C54,64S) (peptide)
peptide: H-SSVSQSTGQIQSKVFDSLLNLSSTLQATR-NH2

Target: T1, Claudin 1 (endogenous, in 16HBE human …)
Experiment: cell-based or functional assay

Binder | enhancement of penetration of labeled Synagis antibody (168 kD), 2.4 µM peptide [fold] | enhancement of penetration of labeled Synagis antibody (168 kD), 12 µM peptide [fold] | increase in FD-40 permeability, 2.4 µM peptide [fold] | increase in FD-40 permeability, 12 µM peptide [fold] | increase in fluorescein permeability, 2.4 µM peptide [fold] | increase in fluorescein permeability, 12 µM peptide [fold] | increase in FITC-dextran 40 kDa (FD-40) permeability, 2.4 µM peptide [fold] | increase in fluorescein (0.4 kDa) permeability, 2.4 µM peptide [fold]
B1 | 4.9 | 5.6 | 25.3 | 30.5 | 5.6 | 16.4 |  | 
B2 | 2.5 | 3.2 |  | 16.8 |  | 6.7 | 11.2 | 4.1
